Literature values as cited in article PMC8573040.

What was measured:
[1] = molecular target: MBP (unfolded) (Escherichia coli) [MBP: P0AEX9]
[2] = molecular target: PhoA (unfolded) (Escherichia coli) [phosphatase: P00634]
Im7 (Escherichia coli) = Im7 (Escherichia coli) (UniProt Q03708)
Sequence of UniProt Q03708 (Q03708 whole entry): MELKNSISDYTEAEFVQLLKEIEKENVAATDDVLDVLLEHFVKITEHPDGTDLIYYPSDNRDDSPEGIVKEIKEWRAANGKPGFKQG

Kd [1] [µM]	Kd [2] [µM]	Substance	Kd (Im7 (Escherichia coli)) [µM]
0.05	0.5	SecB (from UniProt P0AG86)	
		Spy (from UniProt P77754)	2
